Assays:
[1] = test system: I; test: purified protein; settings: pH 6.0
[2] = molecular target: lactoperoxidase (LPO) (Bos taurus, UniProt P80025); test: iodide oxidation (HOI formation), absorbance […] nm, kinetic fit; assay type: biochemical; settings: read-out: LPO^b

| Compound | Km [1] [µM] | Ki [2] [mM] |
| --- | --- | --- |
| lactoperoxidase (LPO) (Bos taurus) | 2900 ± 400 |  |
| Nc1nc(N)nc(N)n1 [melamine, 2,4,6-triamino-1,3,5-triazine] |  | 15 ± 5 |

Source: paper PMC3407616, “Inhibition of Heme Peroxidases by Melamine” (Enzyme Research, 2012)
